In test [1] the target is acetylcholine receptor. Kind of test: SPR, AchR immobilised on chip, peptide 10 uM. (Surface plasmon resonance follows binding to a sensor surface in real time, without labels.)
Test [2] deals with acetylcholine receptor. In words: SPR, AchR immobilised on CM5 chip, peptide at 10 uM.

KKWQSR [6mer-1-233] gave a Binding affinity (RU) with acetylcholine receptor [1] of 128 RU.

Take RRRLLR [6mer-1-229]: in the test with acetylcholine receptor [1], the Binding affinity (RU) worked out at 153 RU. Same read-out and setting: the same measure for KKRYCR [6mer-1-235]: 148 RU. With RIMGR [5mer-858], the Binding affinity (RU) with acetylcholine receptor [2] was 33 RU. In the test with acetylcholine receptor [1], KKRRRK [6mer-1-223] showed a Binding affinity (RU) of 133 RU.

RRRVRR [6mer-1-222]: in the test with acetylcholine receptor [1], the Binding affinity (RU) was 145 RU. The same measure, in the same setting: the same measure for RKSRYK [6mer-1-237]: 137 RU; for KRGFLR [6mer-1-224]: 142 RU. Take KDSMK [5mer-852]: the Binding affinity (RU) with acetylcholine receptor [2] amounted to 22 RU.

RRSRRR [6mer-1-240] showed a Binding affinity (RU) in the test with acetylcholine receptor [1] of 148 RU.

RRLYYK [6mer-1-241]: the Binding affinity (RU) with acetylcholine receptor [1] came out at 148 RU. Regarding RYHIK [5mer-853], the Binding affinity (RU) in the test with acetylcholine receptor [2] was found to be 13 RU. As to RRVICR [6mer-1-250], the Binding affinity (RU) with acetylcholine receptor [1] was determined as 142 RU. KTNAR [5mer-1151]: the Binding affinity (RU) with acetylcholine receptor [2] was determined as 26 RU. On to KRWVTR [6mer-1-261], for which the Binding affinity (RU) in the test with acetylcholine receptor [1] is 121 RU. In turn, RKGYCK [6mer-1-230] yielded a Binding affinity (RU) with acetylcholine receptor [1] of 128 RU. Regarding RNTER [5mer-854], the Binding affinity (RU) with acetylcholine receptor [2] was determined as 21 RU. In the test with acetylcholine receptor [2], KMCWK [5mer-851] came in with a Binding affinity (RU) of 19 RU.

In turn, RKQRTK [6mer-1-260] yielded a Binding affinity (RU) in the test with acetylcholine receptor [1] of 141 RU. The same measure, in the same setting: the same measure for RKSLSK [6mer-1-254]: 137 RU; for KRRQSK [6mer-1-268]: 144 RU; for RKLISR [6mer-1-236]: 151 RU. Turning to KHNAR [5mer-859], in the test with acetylcholine receptor [2], the Binding affinity (RU) was found to be 26 RU.

KRQRQK [6mer-1-220] had a Binding affinity (RU) with acetylcholine receptor [1] of 148 RU. On to RKVLCR [6mer-1-239], for which the Binding affinity (RU) in the test with acetylcholine receptor [1] came out at 136 RU. For the molecule KKMNK [5mer-1156], the Binding affinity (RU) in the test with acetylcholine receptor [2] was determined as 13 RU. For the molecule RKVQSK [6mer-1-251], the Binding affinity (RU) with acetylcholine receptor [1] worked out at 133 RU. Still for that read-out and setting: the same measure for RKQLQR [6mer-1-262]: 139 RU.

Molecule RFMKK [5mer-855] had a Binding affinity (RU) with acetylcholine receptor [2] of 18 RU. On to KKGFQK [6mer-1-255], for which the Binding affinity (RU) with acetylcholine receptor [1] was 139 RU. On to KETDR [5mer-1149], for which the Binding affinity (RU) with acetylcholine receptor [2] was found to be 25 RU. KRLVQK [6mer-1-227]: the Binding affinity (RU) with acetylcholine receptor [1] worked out at 139 RU. Turning to KMENR [5mer-857], the Binding affinity (RU) in the test with acetylcholine receptor [2] stood at 23 RU. The molecule RRWITR [6mer-1-226] yielded a Binding affinity (RU) with acetylcholine receptor [1] of 128 RU.

Regarding KRRYRK [6mer-1-259], the Binding affinity (RU) in the test with acetylcholine receptor [1] is 141 RU. Same read-out and setting: the same measure for KRQYLK [6mer-1-242]: 148 RU.

As to KPPDR [5mer-856], the Binding affinity (RU) with acetylcholine receptor [2] is 23 RU. In the case of RRLIYK [6mer-1-248], the Binding affinity (RU) in the test with acetylcholine receptor [1] came out at 151 RU.

Take KKWKK [5mer-1159]: the Binding affinity (RU) in the test with acetylcholine receptor [2] came out at 17 RU. In the test with acetylcholine receptor [1], RRQYQR [6mer-1-264] displayed a Binding affinity (RU) of 128 RU. For KKGRLK [6mer-1-266], in the test with acetylcholine receptor [1], the Binding affinity (RU) came out at 144 RU.

For RKGVSR [6mer-1-249], in the test with acetylcholine receptor [1], the Binding affinity (RU) is 142 RU. In the test with acetylcholine receptor [2], KENFK [5mer-1152] came in with a Binding affinity (RU) of 18 RU.

RRLVSR [6mer-1-246]: in the test with acetylcholine receptor [1], the Binding affinity (RU) came out at 122 RU.

Molecule KYNPR [5mer-1158] showed a Binding affinity (RU) with acetylcholine receptor [2] of 23 RU. RDAPR [5mer-1153]: the Binding affinity (RU) in the test with acetylcholine receptor [2] was found to be 27 RU. Take RKSVCR [6mer-1-265]: the Binding affinity (RU) with acetylcholine receptor [1] worked out at 145 RU. RYDMK [5mer-1155]: the Binding affinity (RU) with acetylcholine receptor [2] is 25 RU. In the test with acetylcholine receptor [1], KRRLLR [6mer-1-267] yielded a Binding affinity (RU) of 139 RU. On the same count and under the same terms, the same measure for RRGISR [6mer-1-234]: 142 RU. For KFTNR [5mer-1150], the Binding affinity (RU) with acetylcholine receptor [2] came out at 12 RU.

Take RKSYTK [6mer-1-263]: in the test with acetylcholine receptor [1], the Binding affinity (RU) came to 146 RU.

Molecule KTSHR [5mer-1157] showed a Binding affinity (RU) in the test with acetylcholine receptor [2] of 21 RU. On the same count and under the same terms, to KYDIR [5mer-850] belongs 13 RU.

For the molecule KKLQYK [6mer-1-258], in the test with acetylcholine receptor [1], the Binding affinity (RU) is 137 RU. Still for that read-out and setting: the same measure for KKWFQR [6mer-1-221]: 148 RU; for KKWYLR [6mer-1-243]: 136 RU. Turning to KTWMK [5mer-849], in the test with acetylcholine receptor [2], the Binding affinity (RU) was 15 RU.

In the test with acetylcholine receptor [1], RRRICK [6mer-1-232] gave a Binding affinity (RU) of 146 RU. KCWVR [5mer-1154] came in with a Binding affinity (RU) with acetylcholine receptor [2] of 12 RU.

Consider RRVQLK [6mer-1-253], for which the Binding affinity (RU) in the test with acetylcholine receptor [1] is 145 RU. Same read-out and setting: to KRQRTK [6mer-1-231] belongs 136 RU; to RRRVQK [6mer-1-244], 144 RU; to RKLICK [6mer-1-1225], 142 RU. For RRWIRR [6mer-1-252], the Binding affinity (RU) with acetylcholine receptor [1] turned out to be 131 RU. RKWVTR [6mer-1-257] showed a Binding affinity (RU) with acetylcholine receptor [1] of 124 RU. The same measure, in the same setting: to KKVRQK [6mer-1-247] belongs 122 RU; to KRVRTK [6mer-1-256], 125 RU; to KRVIYK [6mer-1-228], 139 RU. Molecule KKGQQK [6mer-1-238] came in with a Binding affinity (RU) with acetylcholine receptor [1] of 154 RU. Still for that read-out and setting: the same measure for RRGFRR [6mer-1-245]: 142 RU.
